According to the supplement of paper PMC11502859:

Tested on: HEK293T
Experiment: median enrichment of reporter reads in eGFP-reduced (low/intermediate) vs eGFP-high sorted cells (eGFP-extension fusion abundance) (ratio); higher = stronger loss of eGFP-fusion protein abundance (more destabilising extension)
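Note: lentiviral eGFP-IRES-mCherry reporter pool sorted by FACS 96 h post-transduction, gated on mCherry-high cells, Illumina read counts normalized per million, median across four biological replicates.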

Row | Substance | median enrichment
1 | EFILERNSTNVKNVTKLLSISLTLLHIRKFILEKNPTDVKNVAKPLSTPLNLLHIRDFILERNPTDVNNVVKLFTYPHTLLHI [ZNF626] | 2.95
2 | LNE [ZCCHC2] | 0.346
3 | QLRTLPFFPLSSLPLPFLPIYPFPSSKSTQGEENKMTTQDLVAKILHSKSSFV [FGF12] | 4.18
4 | RSPPHLRPKGRPPPAFLTPALLPQRMWGGGGGPCGPGAQLPGTPVPGQAHLEEESLPPPKYWAALSLPRDHPSLPAMCTIMTN [GPR108] | 3.35
5 | LQGPLDL [OR56A3] | 0.31
6 | SYGTLAPRHEARWPVFLNLKCKILLFPGPRRV [ICOS] | 11
7 | EGN [CYTL1] | 0.312
8 | SNRIEQNRIE [PCSK5] | 0.616
9 | REDHGLSVPQSQLPDG [TBC1D10C] | 1.36
10 | YASLAAGTSTWRS [CRB2] | 2.41
11 | RGQWLRGYVVQMLLLP [FILIP1] | 8.14
12 | YCLSILVHGCFERYGRQSPGHN [MAGEC3] | 5.24
13 | RSLRAGPSAAGSCLNTSLDMARTHRDTGQDQPCLWRQDTTIWPMAVTSCRVQSQTGNHHLRQDLPASFTFLISRALPPILCLG [SLC22A13] | 6.14
14 | YDGR [ZNF772] | 0.299
15 | RSHTACSFGCD [EIF2B5] | 0.722
16 | LRMWKITCFYLELFNLKIRNCFLLLSQ [CCDC34] | 26.1
17 | EEEEE [Glu05] | 1.41
18 | QKCGKAFTKSSYCVQHLKFNTEQMQYKCNDSGRTFIILEGL [ZNF736] | 4.28
19 | CGALRPS [PNKD] | 0.539
20 | FFFFFF [Phe06] | 9.02
21 | QCLWPSILISLMRILLALLSLVGICQAQCFNLKLILCFRCQSRYQQPFDPTTALYILVEDFHPCAWKRCSWYIVKK [TCEAL3] | 10.4
22 | YKKEKKAKKKK [IQCA1] | 0.422
23 | YVLIGLPAGCDSKA [CBX2] | 14
24 | SGWGWTNNQARAEGFMERPLGDPR [S1PR2] | 0.739

Row | Substance | median enrichment
25 | SALGWSQGGTTQAPWAPRERGGIRAGQPPGCRCQEQSQAQVAPAACPVPFPKAPLHIEGRKREFRQLHSPFTPNPVFYSPEKR [STARD8] | 3.27
26 | RGWDPLLKLVASAGLGAAPQRLQLIC [FES] | 32.6
27 | LVVAGPGPRPCPGPDSLSHVPSPRLPRTLSLPRPQP [MAFB] | 9.74
28 | EPGNPYSFSNTGSFI [ADAM30] | 0.267
29 | WDREDPA [BTNL3] | 0.401
30 | SKILVLLNYLI [TIPARP] | 5.53
31 | RAALLSSQAAPVPSPSTLEWSSSACFPSHRPATTPTMCRKHCLTIPHPPDNSQGWSPGHFQLLLSPCIVSLLCFFSLPPLLFL [RAB15] | 7.07
32 | WWWWWWWWW [Trp09] | 3.84
33 | QQQYYRGLNNTTKSIWIA [NCAM2] | 25
34 | GHAQAMNPQLSQMADRWSPAPIATCNSEKISLVTDQCHGGAC [SHISA3] | 1.98
35 | DNPHPHCFWGSLSHLSHPVSCLCLSWCLSGLLSVSFCLSVSLPTPAPSFQCSGWLSLPFSPSLSALGSVSTAGPKVKVLPLPE [CCDC97] | 5.65
36 | LPPLSPECNKHQIPCVK [POLR2I] | 2.23
37 | KQRRWTFCSNVYMYRIVHTSNSEDLYL [SLC10A7] | 6.06
38 | AAAAA [Ala05] | 4.35
39 | WGLRPHAPSHAVHPFSQVPNGPGSQDPGPSQNLCPPCP [SARDH] | 9.03
40 | YKCEECGKAFKWSSHLTIH [ZNF93] | 6.32
41 | SLREAC [ZNF672] | 0.708
42 | EVDV [PRKCB] | 0.313
43 | EPWPWAPPQGRASRNGDSPGTACPQRGGGHSWAPESLRVLPTEPLGWEGAGGLARTPTFASSSSCPAGRAPPCMMGKAILPLP [SCN1B] | 2.5
44 | RAPAVIIQHDAA [PLXNA1] | 5.99
45 | WPLGRPPAQLPCPPPPSSSGFSVLGRLSWGRRWEGRDQLSSLAGKRGCGSQGGLQGTGMSGGHQAQRKRKQREFTGPPEKSQS [CRHR2] | 1.19
46 | STL [PGRMC2] | 0.374
47 | YPPQGPAPPRPGE [WFIKKN1] | 0.52
48 | RLSTGPLHTISLIYVPSTLPQISGSGPGTWEGTGVRGCMGALAAPGSVVGRKLWKL [LRRC73] | 6.15

Row | Substance | median enrichment
49 | SEVLLETKSPSPIAEGGGDPLL [ARID3C] | 0.257
50 | LKKKKG [TNFAIP6] | 3.07
51 | CGPEASWVSLGPQKLIKE [PCP2] | 0.292
52 | RKFLLNISVGSCYQNFGYDFLGSVYFGCILNYGNGIYLLLTVNLFF [CCDC181] | 5.89
53 | SDARQFLDLGGLKRPPSCLLSFSVSSFLLVFFILFSFHQPSCILALQRDRDRSSAQGFSLPLFIMGGGYHPPSQSCEESGTSF [NOTCH3] | 5.68
54 | SLYQKPEVE [UGT2B17] | 0.724
55 | LRCQLPSEQAGGICHTAPPLG [SMPD4] | 2.92
56 | YPLLKECEI [NCOA1] | 0.498
57 | QSFTSKFYLLCLPLLSRRSCLLPGSLTCSLS [LRRC1] | 18
58 | SAHSPLSQDMDLELRMGLS [IMP4] | 0.513
59 | YSASSNLVFSKKNIYYLFLACHFNSSRDFTAGIF [RBM48] | 41.8
60 | III [Ile03] | 3.74
61 | QTLCALCVRPVPAS [USP10] | 7.74
62 | LPSTCPWGQEHPRPQKRERKGQKKEEKKNVQKDFRSSHSYF [TOB2] | 0.26
63 | QCGSCDRGSSSAEPQTVLPCSMCLKAQGDIPLGWPLPPP [DIAPH1] | 1.17
64 | YGAPTFDFYLSSSWIF [HMGA2] | 9.36
65 | SGARLWDRPGPASGGDPGSGLGSPDLEACPSRASQD [CEBPA] | 0.648
66 | KSIIILQHLRVWQLFVWAFAHAMPSLPSPTPTRGDS [SPATA12] | 8.97
67 | SPPGPSPGSGTLVPNPERSALLP [VPS35L] | 0.894
68 | GEVLPGPRRGDREHHCHPGEPGAGAPGACRLRQGRCGRDDAALGCGVGSPKHPRQQPRPWPHQWHRGAPATGWPSGQPEHQGH [DECR2] | 0.598
69 | LVWGPCQPAAPKPAPLPKQPRPLPLNPGPGRPGRPPVTAAAPALCRAALTCLPSQPLTSRLSLGQREPFGGAACLLWFWEG [FLNA] | 3.92
70 | ELSF [ADHFE1] | 0.232
71 | QTLPFLFEFFRGKG [PCBD1] | 2.9
72 | YAPRR [OTUD6A] | 0.578

Row | Substance | median enrichment
73 | NNN [Asn03] | 0.227
74 | WEMVGIRLRAASTQSQSKASLLMCEFTNSDGSSHILQMLSLPAG [ITSN2] | 19.2
75 | KAAWPQYGPLFAGFSSSLEPPSVGGPPISPLKPALLFWGDPLLLSFPKHGVPWPAFFLCLWWGWGGLFLLAPSGGGGQVTRSG [JUP] | 4.75
76 | YGRFY [OR5L1] | 1.25
77 | WREGSNGSRELDTVHPNTSPPPGHLEESSARIPRQSSPPAPAVPSCAVLLPHSAPGPCPFIPLKHPLKPLHHFHSQQKVIEHL [HAUS5] | 4.17
78 | YMILKPETI [TRIP11] | 4.3
79 | SLKPITVLTAQWN [KCNA2] | 10.7
80 | LKDRFFKLT [RBBP6] | 3.7
81 | SEVIFL [CES5A] | 1.39
82 | YRKGW [C9orf131] | 0.926
83 | WYHMFSWYVN [ABHD10] | 5.5
84 | SQFNLKFLISPTTIY [TSEN2] | 8.83
85 | RDSSACPPWGPCCRPGGQSRWERHSQGQGKEGTHTHTHTHTHTHTYILLSLPKPIRQVNGQCLLGPWTHFLLGEAAS [GLP1R] | 3.35
86 | YNIYSYDKDT [HCRTR2] | 5.01
87 | GGQVAEGSGCRLLYPLCLKHPPHRALVFTRFVLDSLNGNRIPWLRAKTTTYQCPCPFQLTLSSLRSSLSLWKGHPSQGRNAWS [SLC13A5] | 8.48
88 | QGHACAPMGFLFSFFFFLVGGVGGLD [PRKACA] | 5.49
89 | YQGPLDL [OR56A3] | 0.714
90 | WATLRSVFPLPPSPHVRRPPPRCSRGS [C19orf57] | 15.9
91 | SRPEVQATLASGTPPRL [RTP5] | 0.536
92 | GGLLSVLGTPGPYRTRAAALSHPLGRRYGSSVPLASMWSGGDAAPVVGTSWGDPRPSLAGLSPVPISHSGPRADILIK [GUK1] | 2.98
93 | QQQQQQQQ [Gln08] | 0.342
94 | WARTLNRTPVGPARTACSAGDGSDPWSSIAPHDIESRPVFALWEENGRESGQLSQSIRAGRT [ABCC6] | 7.78
95 | STRRPSPQKP [ERBB2] | 0.591
96 | CGRTSALSDRTLRAMLPCHP [MRGPRX3] | 6.32

Row | Substance | median enrichment
97 | CQKHKMMQCGPPCTFCNVIAVNGKTIALLKTHL [MARCH11] | 12.3
98 | RAMPSLCAVKLSMHYILLAPLQVNAKSQLG [CDC14A] | 7.49
99 | KPKEVPGTVSDLERSQKENNIIK [CELA2A] | 0
100 | KPSEFSL [CD163] | 0.535
101 | VGTMAAGRAPGK [Degron APPBP2] | 6
102 | LDALAMAQEKPARKNQTDFHTKEEASIFFFLFFIGVVTKPFRLLLFKI [QRICH1] | 10.6
103 | YKPGGSSHSCSQGHWARAAHAQEARFEGICEAAACCCTCAFSLPLPSLSSHGGVRSCPCSESTFPAIPGAGGACASAIPCDQA [TSSK6] | 3.81
104 | WCPPKP [FAM8A1] | 0.371
105 | WPPPAPTRPRRALSIS [SLCO4A1] | 9.47
106 | YELWGAHTPQSS [IL17A] | 1.09
107 | LEKPSSFVETVALQPWRRTCWYLKNGTFATQD [DOCK8] | 6.15
108 | SDP [CYGB] | 0.606
109 | WWSCDVHEVLPHALEGSESRVNCPADILLGFLA [SLC7A6OS] | 8.62
110 | RLHTCMLSPRGNGLYIAHFTLFRRHFIPALVLLEGLSRQSSSCSASVCDSPPSTPMALSLGDSSSPRKEGGVAEDLQPWPRGA [PRKAB1] | 7.16
111 | LEKAIWDLITLNRHANTVCVRALCIQ [PCDH9] | 9.37
112 | YRQK [CCR2] | 0.225
113 | SVAHSGKGVLCEHVEA [GATC] | 0.756
114 | YALNINSVLQIFITYLLQSQNPKIFIKSKYLMSFEGSLSYTK [C10orf88] | 1.47
115 | GSVQGFLGPSCLS [KCNA10] | 0.463
116 | QKVPLANCLEAQHNPKALFR [HIST1H1E] | 2.26
117 | RAWVLTPGRATLSDLKMRILGTGCLSPQQNQNESLKAQDSAFATLPLSWYRRWM [ZNF410] | 8.88
118 | LLLL [Leu04] | 9.42
